Results from patent US20150087812A1 (Janssen / Centocor, published 2015).
Changes are numbered by the printed parent chain.

B1: Fab F97 (VH H90, VL IFWL124) (Fab, V domains shown)
VH: QVQLVQSGAEVKKPGSSVKVSCKASGGTFSSYAISWVRQAPGQGLEWMGGIIPIFGTANYAQKFQGRVTITADESTSTAYMELSSLRSEDTAVYYCARDASTYGDLDYWGQGTLVTVSS
VL: DIQMTQSPSSLSASVGDRVTITCRASQSIDGWLNWYQQKPGKAPKLLIYAASSLQSGVPSRFSGSGSGTDFTLTISSLQPEDFATYYCQQSYSTPLTFGQGTKVEIK
notes: Soluble Fab-His; converted to mAb B18
B2: Fab F32 (VH H7, VL PH9L4) (Fab, V domains shown)
VH: B1 VH with A100D, S101V, T102A, Y103L, D105R
VL: not shown
notes: Soluble Fab-His
B3: Fab F62 (VH H54, VL GCGL18) (Fab, V domains shown)
VH: B1 VH with D99E, A100D, S101V, T102A, Y103L, D105R
VL: not shown
notes: Soluble Fab-His
B4: Fab F73 (VH H66, VL L67) (Fab, V domains shown)
VH: B1 VH with A100L, S101Y, T102I
VL: B1 VL with D30G, A50T, S93T, T94Y, L96I
notes: Soluble Fab-His; converted to mAb B6
B5: Fab F96 (VH H89, VL IFWL124) (Fab, V domains shown)
VH: B1 VH with A100S, T102A, L106F
VL: B1 VL
notes: Soluble Fab-His; converted to mAb B8
B6: Fab F104 (VH H96, VL IFWL124) (Fab, V domains shown)
VH: B1 VH with T57N, A58T, A100I, T102G
VL: B1 VL
notes: Soluble Fab-His; converted to mAb B14
B7: Fab F143 (VH H148, VL H2RL12) (Fab, V domains shown)
VH: B1 VH with A100F, T102V, L106F
VL: B1 VL with D30A, G31K
notes: Soluble Fab-His; converted to mAb B13
B8: Fab F17 (VH H11, VL L14) (Fab, V domains shown)
VH: EVQLVQSGAEVKKPGESLKISCKGSGYSFTSYWIGWVRQMPGKGLEWMGIIYPGDSDTRYSPSFQGQVTISADKSISTAYLQWSSLKASDTAMYYCARPYGTFDYWGQGTLVTVSS
VL: EIVLTQSPATLSLSPGERATLSCRASQSVADSLAWYQQKPGQAPRLLIYKASNRATGIPARFSGSGSGTDFTLTISSLEPEDFAVYYCQQSNGWPRTFGQGTKVEIK
notes: Soluble Fab-His (E. coli supernatant); converted to mAb B3
B9: Fab F86 (VH H80, VL L80) (Fab, V domains shown)
VH: QVQLVQSGAEVKKPGSSVKVSCKASGGTFSSYAISWVRQAPGQGLEWMGGIIPIFGTANYAQKFQGRVTITADESTSTAYMELSSLRSEDTAVYYCARPIGTGYYGFFDYWGQGTLVTVSS
VL: B1 VL with D30A, G31K, A50F
notes: Soluble Fab-His; converted to mAb B7
B10: Fab F121 (VH H115, VL L106) (Fab, V domains shown)
VH: B9 VH with P99G, I100D, G101A, T102N, G103A, Y104L, G106D, F107Y
VL: B8 VL with A30S, D31N, S32W, K50T, S91R, N92Y, G93T, W94A, R96W
notes: Soluble Fab-His
B11: Fab F53 (VH H2, VL L30) (Fab, V domains shown)
VH: B1 VH with A100D, S101L, T102P, Y103L, D105R
VL: B8 VL with A30N, D31K, S32H, S91G, N92I, G93R, W94A, R96Y
notes: Soluble Fab-His; converted to mAb B4; also called P53
B12: Fab F2 (VH H2, VL L1) (Fab, V domains shown)
VH: B1 VH with A100D, S101L, T102P, Y103L, D105R
VL: B8 VL with A30R, D31N, S32F, K50D, S91G, N92Y, G93R, W94A, R96I
notes: Soluble Fab-His

Tests used:
[1] = target: T1, recombinant human ATX beta isoform with N-terminal purification tag (human, UniProt Q13822 49-863); experiment: ELISA, Fab-His captured by anti-Fd, 5 nM biotinylated human ATX beta
Description: (§1) Fabs were captured on black MaxiSorp plates (Nunc, Cat. No. 437111) coated with 1 μg/ml sheep anti-human Fd (CH1) antibody (The Binding Site, Cat. No. PC075). Plates were washed and biotinylated human ATX was added to the captured Fabs at 5 nM. Incubation was carried out for 1 hour at room temperature with gentle shaking. Plates were washed, SA-HRP (Invitrogen, Cat. No. 43-4323) was added and chemiluminescent detection carried out.
(§2) Clones with binding above background were sequenced and unique clones identified. […] These clones were identified with binding signal to human ATX at least 6-fold above the background. Table 3 lists the identifier for VH and VL (Peptide ID) and the combination of both (Fab ID) sorted by the Fab ELISA binding data.

[2] = target: T1, recombinant human ATX beta isoform with …; experiment: Fab-His ELISA
Description: as §1, §2

Binder | Fab Binding [1] | fold above background [2]
B1 | 5.8e+06 relative chemiluminescence units | ≥ 6 fold
B2 | 2e+06 relative chemiluminescence units | ≥ 6 fold
B3 | 1.6e+06 relative chemiluminescence units | ≥ 6 fold
B4 | 1.7e+07 relative chemiluminescence units | ≥ 6 fold
B5 | 5.9e+06 relative chemiluminescence units | ≥ 6 fold
B6 | 5.1e+06 relative chemiluminescence units | ≥ 6 fold
B7 | 4.9e+06 relative chemiluminescence units | ≥ 6 fold
B8 | 2.4e+07 relative chemiluminescence units | ≥ 6 fold
B9 | 4.2e+06 relative chemiluminescence units | ≥ 6 fold
B10 | 1.4e+06 relative chemiluminescence units | ≥ 6 fold
B11 | 2.4e+06 relative chemiluminescence units | ≥ 6 fold
B12 | 1.5e+06 relative chemiluminescence units | ≥ 6 fold
